Target: the molecule itself
Experiment: crystal structure; Ets1 280-441 mixed 1:1.05 with TCRα promoter dsDNA; (Ets1)2•2DNA crystals grown at 295 K, space group P2_(1), refined at 3.1 Å; asymmetric unit holds an Ets1 homodimer and two pieces of dsDNA

B1: Ets1 (residues 280–441) (domain or fragment, UniProt P14921 280-441, looked up)
chain: VPSYDSFDSEDYPAALPNHKPKGTFKDYVRDRADLNKDKPVIPAAALAGYTGSGPIQLWQFLLELLTDKSCQSFISWTGDGWEFKLSDPDEVARRWGKRKNKPKMNYEKLSRGLRYYYDKNIIHKTAGKRYVYRFVCDLQSLLGYTPEELHAMLDVKPDADE
notes: also called Ets1 dimer; source: cloned, expressed and purified according to reported protocols [36]
stoichiometry N: 2

Source: publication PMC3303851, “Structural Basis of Ets1 Cooperative Binding to Widely Separated Sites on Promoter DNA” (PLoS ONE, 2012)
